Measured values: patent US10918726B2, “Carbosilane dendrimer and aggregatable carrier obtained using said dendrimer for drug delivery system” (Quarrymen & Co. Inc., priority 2014, dated 2021)

Experiment: Particle size of raw materials and micelles by dynamic light scattering (DLS, ZETASIZER NANO-S)
Assay type: physicochemical
Conditions: for particle size: DLS after overnight incubation at 37° C., measured at 25° C.; for Particle diameter peak by number / Particle diameter peak by scattering intensity / Zeta Average (average particle diameter): Table 1, raw materials and products in PBS, measured 5 times at 25° C.
Experimental: After vortex, the solution was stood at 37° C. for overnight incubation to bind GFP and the silole dendrimer, and subsequently to form the micelles. The incubation time for this experiment was about 16 to 18 hours. The properties of the micelle particles in the solution were measured by using dynamic light scattering method (DLS; Dynamic light scattering).
Also, the particle size in the reaction mixture was measured at 25° C. by using ZETASIZER NANO-S(manufactured by Malvern Instrument Ltd.) with a laser beam wavelength of 532 nm.
It was measured whether the micelles including each drug are formed in the sample to which each model drug is added; and if the micelles including the drug are formed, their particle size were measured by using the dynamic light scattering method. Here, DiI, Oil orange SS, and goat anti mouse IgG-Alexa 610 were used as drug models.
The particle properties of the target peptide sequence-binding micelle were measured by a dynamic light scattering method as the same as used in the example 1 (see FIG. 11). […] As a result, the particles having the particle size of about 100 nm to 200 nm were confirmed as the same as those in the example 1.

| Compound | particle size | Particle diameter peak by number | Particle diameter peak by scattering intensity | Zeta Average (average particle diameter) |
| --- | --- | --- | --- | --- |
| 20 μM GFP only: green fluorescent protein, SEQ ID NO: 1, cysteine at position 251, cysteine 60 replaced with serine | about 4 nm | 4.682 nm | 838.8 nm | 860.7 nm |
| C[Si](C)(CCC[Si](CCCBr)(CCCBr)CCCBr)CCC[Si](CCCBr)(CCCBr)CCCBr [50 μM Silole only] | about 650 nm | 649.3 nm | 664.6 nm | 894.5 nm |
